Data from the DeepSol protein solubility set.

Experiment: soluble on expression in E. coli; label from the status in PepcDB or PDB records

Sequence | soluble on expression in E. coli
MENFEIWVEKYRPRTLDEVVGQDEVIQRLKGYVERKNIPHLLFSGPPGTGKTATAIALARDLFGENWRDNFIEMNASDERGIDVVRHKIKEFARTAPIGGAPFKIIFLDEADALTADAQAALRRTMEMYSKSCRFILSCNYVSRIIEPIQSRCAVFRFKPVPKEAMKKRLLEICEKEGVKITEDGLEALIYISGGDFRKAINALQGAAAIGEVVDADTIYQITATARPEEMTELIQTALKGNFMEARELLDRLMVEYGMSGEDIVAQLFREIISMPIKDSLKVQLIDKLGEVDFRLTEGANERIQLDAYLAYLSTLAKK | soluble
MENFLHKWFASEYDLYEEDLEKASALVNSHNIRTVVNVMFQHPIFTVNMMAALTSLPEATVRRYLNRFEEQQLIFSDGRMRSKTYYYYNLLDQLR | not soluble
MENHDLVIVGGGISGLQAAISAKKSGVQDIVLIEAEDSLGGILNQCIYTGFGMEDFKEELTGTEYVQRFIDEFLELNIEYKLNTTVIKISKNKVITAVSPNEGIIEIKACSIIFAAGAVEKPQKSIRVLTKDLSGIYSALTVGRFINIHGYMPGKSIVILGANKIGNALANRIFIEGGKVKAVIDSEVGFDERNEIIEFLAEINIPFLYNYNIVKIKGSERIEGIYISDENGEKFISCDTLILALKLNPNDKILREANIKILNKERNEINTNVPGVFIVGNALYIHESNEGSPLENRKAGEMSAEYIRATLLEHHHHHH | not soluble
MENIMKITIINGSPRFKKSNSEILKNYLLNFIKENEINEFFSFSIKLDDDIKTDIYNSDILIFIFPLYVDSIPANLLDLLVRFEDENVINSKTKIYCIVNNGFFEGVQNHLAISQIRCWSKKVNAQWGQGIGVGGGELLSHLKKVPLGQGPLKNLGIILEKFSKNILSLKGDEDIYINPNYPKILYFLQANISWFIEGRKNKLKFRDLFKKILEHHHHHH | not soluble
MENKIQELTDKIYREGVEKGNEEAQRLIANAQEEAKKIIEDARKEADSIVAASRKSADELADNTKSELKLFSGQAVNALKSEIATMVTDKLITASVKDFAQDKDYLNAFIVALASKWSVDEPIVISTADAESLKKYFAAHAKALLDKGVTIEQVNGIKTLFTVSPADGSYKVNFGEEEFMNYFKAFLRPQLVEMLF | not soluble
MENKTIQLFGNITGGPIELHSQTGSRRRRDTVENAGKSAWDTAGDVGKSVIDTVENAGAAVKNGASDLDEKLMGSG | not soluble
MENKTLDHTLQGAPLWLTNFVLVYQKLSKENLQLLATIYHENVTFIDPLHTVEGFDDLYQYFENLYQNLSACDFVIEEVIWQDSQASLFWTMTYQHPKLNKGKMVTVVGTSHIKGEGDKVIYHRDFLDLGAMLYEQLPILGKLTKWIKTKAAN | not soluble
MENLKNIQPREDFNWEEFEAGGVHAAVSRQEQEAAYDKTLNTIKEKEVVMGRVTAINKREVVINVGYKSEGVVPATEFRYNPELKVGDEVEVYIENQEDKKGQLVLSHRKARAARSWERVNEALEKDEIVKGYVKCRTKGGMIVDVFGIEAFLPGSQIDVRPIRDYDAFVEKTMEFKIVKINQEYKNVVVSHKVLIEAELEQQKKEII | not soluble
MEPIWRNYPYPTYPGHHNFQFDPLLSDGSHTGVNQLGGVFVNGRPLADTVRAQIVEMSQHGTRPCDISRQLKVSHGCVSKILGRYYSTGSVRPGVIGGSKPKVATPRVVECIAGYKRANPTMFAWEIRQKLIEDQICGEENVPSVSSINRIVRNKSFMAQLAAPTSVTSSAARPSSATSHHQRSPPRGVQQHMQQSTSVQQLQQLQLTSAATVNSLMTPPAFAMPGTAYSINGLLGTLPQPSLLDDKFTNLSTQSADMSLVYSTGLVGEHDWTMRTPMVILPQNYCGQL | not soluble
MEPKRSRLVVCAPEPSHAREFPDVAVFSGGRANASQAERLARAVGRVLADRGVTGGARVRLTMANCADGPTLVQINLQVGDTPLRAQAATAGIDDLRPALIRLDRQIVRASAQWCPRPWPDRPRRRLTTPAEALVTRRKPVVLRRATPLQAIAAMDAMDYDVHLFTDAETGEDAVVYRAGPSGLRLARQHHVFPPGWSRCRAPAGPPVPLIVNSRPTPVLTEAAAVDRAREHGLPFLFFTDQATGRGQLLYSRYDGNLGLITPTGDGVADGLA | soluble
